Test results taken from patent US20040077031.

What was measured:
[1] = biological target: T1, MAS (methionine-alanine-serine) trimeric peptide
T1 chain: MAS

[2] = biological target: T2, MGSSKSKP (Src p60) octameric peptide
T2 chain: MGSSKSKP

MGKVKVGVNG peptide = biological target: T3, MGKVKVGVNG peptide
T3 chain: MGKVKVGVNG

MGKVK peptide = biological target: T4, MGKVK peptide
T4 chain: MGKVK

MGKVKVG (GADPH) peptide = biological target: T5, MGKVKVG (GADPH) peptide
T5 chain: MGKVKVG

MGKVKV peptide = biological target: T6, MGKVKV peptide
T6 chain: MGKVKV

MGK peptide = biological target: T7, MGK peptide
T7 chain: MGK

MGKVKVGVNGF peptide = biological target: T8, MGKVKVGVNGF peptide
T8 chain: MGKVKVGVNGF

[3] = biological target: T9, MGNAAAAK (PKC a) octameric peptide
T9 chain: MGNAAAAK

MGKV peptide = biological target: T10, MGKV peptide
T10 chain: MGKV

[4] = biological target: T11, MGNLKSVA (eNOS) octameric peptide
T11 chain: MGNLKSVA

[5] = biological target: T12, MGAQFSKT (MARCKS protein) octameric peptide
T12 chain: MGAQFSKT

MGKVKVGVN peptide = biological target: T13, MGKVKVGVN peptide
T13 chain: MGKVKVGVN

B1: recombinant human methionine aminopeptidase type 2 (MetAP2) with N-terminal histidine tag (protein)
chain: MAGVEEVAASGSHLNGDLDPDDREEGAASTAEEAAKKKRRKKKKSKGPSAAGEQEPDKESGASVDEVARQLERSALEDKERDEDDEDGDGDGDGATGKKKKKKKKKRGPKVQTDPPSVPICDLYPNGVFPKGQECEYPPTQDGRTAAWRTTSEEKKALDQASEEIWNDFREAAEAHRQVRKYVMSWIKPGMTMIEICEKLEDCSRKLIKENGLNAGLAFPTGCSLNNCAAHYTPNAGDTTVLQYDDICKIDFGTHISGRIIDCAFTVTFNPKYDTLLKAVKDATNTGIKCAGIDVRLCDVGEAIQEVMESYEVEIDGKTYQVKPIRNLNGHSIGQYRIHAGKTVPIVKGGEATRMEEGEVYAIETFGSTGKGVVHDDMECSHYMKNFDVGHVPIRLPRTKHLLNVINENFGTLAFCRRWLDRLGESKYLMALKNLCDLGIVDPYPPLCDIKGSYTAQFEHTILLRPTCKEVVSRGDDY
Km [1]: 212 µM | baseline activity (turnover, no added metal) [1]: 0.19 µM/min turnover of MAS at 60 nM MetAP2 | enzymatic cleavage of peptide substrate [1]: showed enzymatic activity in cleaving a tripeptide MAS substrate | kcat [1]: 2.54 s⁻¹ | kcat/Km [1]: 0.72 | Km [2]: 233 µM | kcat [2]: 3.94 s⁻¹ | kcat/Km [2]: 1 | Km (MGKVKVGVNG peptide): 164 µM | kcat (MGKVKVGVNG peptide): 10.2 s⁻¹ | kcat/Km (MGKVKVGVNG peptide): 3.7 | Km (MGKVK peptide): 188 µM | kcat (MGKVK peptide): 10.4 s⁻¹ | kcat/Km (MGKVK peptide): 3.3 | Km (MGKVKVG (GADPH) peptide): 215 µM | kcat (MGKVKVG (GADPH) peptide): 9.56 s⁻¹ | kcat/Km (MGKVKVG (GADPH) peptide): 2.7 | Km (MGKVKV peptide): 149 µM | kcat (MGKVKV peptide): 8.53 s⁻¹ | kcat/Km (MGKVKV peptide): 3.4 | Km (MGK peptide): 758 µM | kcat (MGK peptide): 3.32 s⁻¹ | kcat/Km (MGK peptide): 0.3 | Km (MGKVKVGVNGF peptide): 131 µM | kcat (MGKVKVGVNGF peptide): 9.43 s⁻¹ | kcat/Km (MGKVKVGVNGF peptide): 4.3 | Km [3]: 260 µM | kcat [3]: 3.78 s⁻¹ | kcat/Km [3]: 0.9 | Km (MGKV peptide): 624 µM | kcat (MGKV peptide): 6.7 s⁻¹ | kcat/Km (MGKV peptide): 0.6 | Km [4]: 208 µM | kcat [4]: 4.87 s⁻¹ | kcat/Km [4]: 1.4 | Km [5]: 224 µM | baseline activity (turnover, no added metal) [5]: 0.12 µM/min turnover of MGAQFSKT at 30 nM MetAP2 | kcat [5]: 4.87 s⁻¹ | kcat/Km [5]: 1.3 | Km (MGKVKVGVN peptide): 205 µM | kcat (MGKVKVGVN peptide): 10.2 s⁻¹ | kcat/Km (MGKVKVGVN peptide): 3
